Results as given in the nanobody polyreactivity screen of Harvey et al. (2022).

Assay: yeast display, Sf9 membrane polyspecificity reagent, FACS + sequencing; frameworks hold sequencing errors
Method in brief: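 Nanobodies from a synthetic yeast display library (Saccharomyces cerevisiae BJ5465), induced 36–48 hours with galactose, were stained 1 hour at 4 °C with 10% biotinylated, detergent-solubilized Sf9 membrane reagent, enriched on streptavidin microbeads, then FACS-sorted. Anti-HA (expression) and streptavidin (reagent binding) fluorescence set low and high (top ~1%) gates. Polyreactivity labels come from the gate of origin. Genes were colony-PCR amplified, MiSeq 2 × 250 sequenced and filtered by CDR length.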

## HLQLVESGGGLVQAGGSLRLSCAPSGSTFKRNTKGWYRQAPGKEREMVASINRGGSTYYADSVKGRFTISSDNAKNTVYLQMNSLKPEDTAVYYCAKRVLNCYTGTQAPNKFGYWGQGTQVTVSS
  polyreactivity (PSR sort gate): low polyreactivity

## QVQLVESGGGLVQAGGSLRLSCAASGYIFATYAMGWYRQAPGKERELVAAITSTGSTYYADSVKGRFTISRDNAKNTVYLQMNSLKPEDTAVYYCAAVSGYRARYYLYYYWGQGTQVTVSA
  polyreactivity (PSR sort gate): high polyreactivity

## HVQLVESGGGLVQAGGSLRLSCAASGNTFKYYAMGWYRQAPGKERELVAAISYSGGSTYYADSVKGRFTISRDNAKNTVYLQMNSLKPEDTAVYYCAADLDSERYYWGQGTQVTVSS
  polyreactivity (PSR sort gate): low polyreactivity

## QVQLVESGGGLVQAGGSLRLSCAASGSTFTRYAMGWYRQAPGKERELVAAISSSAGRTYYADSVKGRFTISRDNAKNTVYLQMNSLKPEDTAVYYCAATRVYAGAQYDYWGQGTQVTVSS
  polyreactivity (PSR sort gate): high polyreactivity

## QVQLVESGGGLVQAGGSLRLSCAASGSIFDSYAMGWSRQAPGKERELVAAISSGGSTNYADSVKGRFTISRDNEKNTVILQMYSLKTEDTAVYFCAADGSLDAYNYWGQGTQVSVSS
  polyreactivity (PSR sort gate): low polyreactivity

## QVQLVESAGGLVQAGGSLRLSCAASGSTFGKYAMGWDRHAPGKERELVAAISWSGGSTYYADSVKGRFTISRDNAKNTVYLQMNSLKPEDTAVYYCTVYRYDGDYWGQGTQVTVSS
  polyreactivity (PSR sort gate): high polyreactivity

## QVQLVESAGGLVQAGGSLRLSGSASGIIIASNGMGWYRQPPGKERELVAAISSGGSTNYADSVKGRFTISRDNAKNTVYLQMNSLKPEDTAVYYCADDRWYREYDYWGQGTQVTVSS
  polyreactivity (PSR sort gate): low polyreactivity

## QVQLVESGGGLVQAGGSLRLSCAASGIIFYYYGMGWSRQAPGKEREFVAAISTSGGNTYYADSVKGRFTISRDNAKNTVYLQMNSLKPEDTAVYYCAADDWPWGDAGVDYWGQGTQVTVSS
  polyreactivity (PSR sort gate): low polyreactivity

## QVQLVESGGGLVQAGGSRRLICAASGSIFYTNAMGWYRPAPAKERELVARISFSDGTTNYADSVKGRFTISRDNAKNTVYVQMNSLKPEDTAVYYCATDLYGRPVRFDYWGQGTQVTVSS
  polyreactivity (PSR sort gate): low polyreactivity

## QVQLVESGGGLVQAGGSLRLSCAASGRTFIGYAMGWYRQAPGKERELVAAISSGGNTYYADSVKGRFTISRDNAKNTVYFQMNSLKPEDTAVYYCAAKGYRRVARYFIGDYWGQGTQVTVSS
  polyreactivity (PSR sort gate): low polyreactivity

## QVQLVESGGGLVQAGGSLRLSCAASGYTFRGYAMGWYRQAPGKEREFVAAINWSDGSTYYADSVKGRFTISRDNAKNTVYLQMNSLKPEDTAVYYCNADQYYRVPDNYWGQGTQVTVSS
  polyreactivity (PSR sort gate): low polyreactivity

## QVQLVESGVGLVQAGGSLRLSCAASGSTFDVYDMGWYRQAPGKERELVASISWDGDRTYYADSVKGRFTISRDNAKNTVYLQMKSLKPEDTAVYYCAATLRPYSSFPNRYGYWGQGTQVSVSS
  polyreactivity (PSR sort gate): low polyreactivity

## QVQLVESGGGLVQAGGSLRLSCAASGSTFTRYAMGWYRPAPGKERELVAAISLSGGDTYYADSVKGRFTISRDNAKNTVYLQMNSLKPEDTAVYYCAARWGYRGYSYEYWGQGTQVTVSS
  polyreactivity (PSR sort gate): high polyreactivity

## QVQLVESGGGLVQAGGSLRLSCAASGSTFWWYAMGWYRPAPGKERELVARISNGGGTNYADSGKGRFTISRDNEKNSVFLQMNSLIPEDTAVYYCAATVGVAYYENDYWGQGTQVTVSS
  polyreactivity (PSR sort gate): low polyreactivity

## QVQLVESGGGLVQAGGSLRLSCSASGRIFSPYAMGWYRQAPGKERELVAAISWRGSSTYYADSVKGRFTISPDNAKNTVYLQMNSLKPEDTAVYYCAAPSSKYWGQGTQVTVSS
  polyreactivity (PSR sort gate): low polyreactivity

## QVQLVESGGGLDQAGGSLRLSCAASGRIFTTYAMGWYRQAPGKERELVAAISRSGGSTYYADSVKGRFTISRDNAKNTVYLQMNSLKPEDTAVYYCAAVPTSNSFRSSFYYWGQGTQVTVSS
  polyreactivity (PSR sort gate): high polyreactivity

## QVQLVESGGGLVQAGGSLRLSCAASGSIFQGYAMGWYRQAPGKERELVAAITASGGSTYYADSVKGRFTISRDNAMNTVYLQMNSLKPEDTAVYYCAAVRKSVGVKYDFWGQGTQVTVSS
  polyreactivity (PSR sort gate): high polyreactivity

## QVQLVESGGGLVQAGGSLRLSCAASGSIFYRNAMGWSRQPPGKERELVAGITTRGGSTYYADSVKGRFTISRDNAKNTVYLQMNSLKPEDTAVYYCAAVPYSRYSSSRGYWGQGTQVTVSS
  polyreactivity (PSR sort gate): high polyreactivity

## QVQLVESGGGLVQAGGSLRLSCAASGFIFSSYAMGWYRQAPGKEREFVAAIDWNSTSTYYADSVKGRFTISRDNAKNTVYLQMNSLKPEDTAVYYCAADWVGYFVYPYDYWGQGTQVTVSS
  polyreactivity (PSR sort gate): high polyreactivity

## QVQLVESGGGLVQAGGSLRLSCAASGFTFVKYAMGWYRQAPGKERELVAVISRRGGSTYYADSVKGRFTISRDNAKNTVYLQMNSLKPEDTAVYYCAAKVALPRTQEWEYGYWGQGTQVTVSS
  polyreactivity (PSR sort gate): high polyreactivity

## QVQLVESGGGLVQAGGSLRLSCAASGSTFLVYAMGWYRQAPGKERELVAVIDNGGDTYYADSVKGRFTISRDNAKNTVYLQMNSLKPEDTEVYYCAADMSYLGYWEYDSWGQGTQVTVSS
  polyreactivity (PSR sort gate): low polyreactivity

## QVQLVESGGGLVQAGGSLRLSCAASGRIFGDNAMGWYRQAPGKERELVAGIRWRADRTYYADSVKWRFTISRDNAKNTVYLQMNSLKPEDTAVYYCNVGSFTGHSYGFGYWGQGTQVTVSS
  polyreactivity (PSR sort gate): low polyreactivity

## QVQLVESGRGLVQAGGSLRLSCAASGRIFVHYAMGWYRQAPGKERELVAAITYSGDSTYYADSVKGRFTISRDNAKNTVYLQMNSLKPEDTAVYYCNAVVRRVLFDYDYWGQGTQVTVSS
  polyreactivity (PSR sort gate): high polyreactivity

## QVQLVESGGGLVQAGGSLRLSCAASGFTFSTYAMGWYRQAPGKERELVAAISRSGGSTYYADSVKGRFTISRDNAKNTVYLQMNSLKPEDTAVYYCNAEGPSYYYIIYDYWGQGTQVTGSS
  polyreactivity (PSR sort gate): high polyreactivity

## QVQPVESAGGLVQAGGSLRLSCSASGFIFKYYAMGWYRQAPGKERELVAAISYSGTRTYYADSVKGRFTISRDNAKNTVYLQMNSLKPEDTAVYYCNARDWSFVGTYDYWGQGTQVTVSS
  polyreactivity (PSR sort gate): high polyreactivity

## QVQLVESGGGLVQAGGSLRLSCAASGSTFYGYAMGGYRQAPGKERELVAAISSSGGTTYYADSVKGRFTMSRDNAKNTVYLQMNSLKPEDTAVYYCAARRRSGTYWRSANDYWGQGTQVTVSS
  polyreactivity (PSR sort gate): high polyreactivity

## QVQLVESGGGLVQSGGSLRLSCAASGITFARYTMGWYRQAPGKVRELVAAISYAGNTYYADSVKGRFTISRDNAKNTVYLQMNSLKPEDTAVYYCAREYTYYPRWVGYDAYGEDYWGQGTQVTVSS
  polyreactivity (PSR sort gate): low polyreactivity

## QVQLVESGGGLVQEGGSLRLSCAASGYTFGRYFMGWYRQAPGKEREFVAAISRGGGSTYYADSVKGRFTISRDNAKNTVYLQMNSLKPEDTAVYYCDTRSSNAEYWGQGTQVTVSS
  polyreactivity (PSR sort gate): high polyreactivity

## QVQLVETGGGLVQAGGILRLSCAASGLTIIYYAMGWYRQSPGKERELVAAISGSVGSTYYADSVQGRFTISRDNAKNTVYLQMNSLKPEDTAVYYCNADRWGFGNVRKYDYWGQGTQVTVSS
  polyreactivity (PSR sort gate): low polyreactivity

## QVQLVESVGGLFHEGGSLRLSSAASGFIFWANAMGCYRQAPGKERELVAAIRNSGGRTYYADSVKGRFTISRDKAKNTVYLQMNSLKPEDTAVYFCATDTGYPYSYDLFDSYYWGQGTQLTVSS
  polyreactivity (PSR sort gate): low polyreactivity

## QVQLVESGGGLVQAGGSLRISCAASGFTFPIYAMGWYRKAPGKEREFVAAITASGDNTYYADSVKGRFTISRDNAKNTVYLQMNSLKPEDSAVYYCAADWFVDWWEYDYWGQGTQVTVSS
  polyreactivity (PSR sort gate): low polyreactivity

## QVQLVESGGGLVQAGGSLRLSCAASGSTFTYYTMGWYRQAPVKERELVAAISTSGGRTYDADSVKGRFTISRDYAKIPVFLQMNSLKPEDTAVYYCAAYSRTYDREFDYWGQGTQVTVSS
  polyreactivity (PSR sort gate): high polyreactivity

## QVQHVESVGGLVQAGGSLRLSCAASGYIFIRYPMGCYRQANGKERELDAAITWSDGTTYYADSVKGRFTISRDNAKNTVYLQMNSLKPEDTAVYYCAADRKVESVSRYDYWGQGTQVTVSS
  polyreactivity (PSR sort gate): low polyreactivity

## QVQLVESGGGLVQAGGSLRLSCAASGSIFATYAMGWYRQAPGKERELVAAITSSDGSTNYADSVKGRFTISRDNAKNTVYLQMNSLKPEDTAVYYCATDAPDRTDSDSGFDAGYDYWGQGTQVTLSS
  polyreactivity (PSR sort gate): low polyreactivity

## QVQQQESGGGLVQAGGSLRQSYAASGYIFPSLAMGWYRQAPGKEREFVAAIGRGSTNNYADSVKGRFTISRDNAKNTAYQQMNSLKPEDTAVYYCAAAASPLTRHLYWGQGTQVTVSS
  polyreactivity (PSR sort gate): low polyreactivity

## QVQLVESGGGLVQAGGSLRLSCAASGRTFRVYAMGWYRPAPGKERELVATITSSGGSTYYADSVKGRFTISRDNAKNTVYLQMNSLKPEDTAVYYCNVSVYYNYDSSYYYWGQGTQVTVSS
  polyreactivity (PSR sort gate): low polyreactivity

## QVQLVESGGGLVQAGGSLRLSCAASGLIFPYYVMGWYRQAPGKERELVAAITWSGGRTYYADSVKGRFTISRDNAKNTVSLQMNSLKPEDTAVYYCAATYWTIDYWGQGTQVTVSS
  polyreactivity (PSR sort gate): low polyreactivity

## QVQLVESGGGLVQAGGSLRLSSAASGSIFRYNAMGWYRPAPGKERELVAAITSSGGSTYYADSVKGRFTISRDNAKNTVYLQMNSLKPEDTAVYYCAAVRRRVHYPYDYWGQGTQVTVSS
  polyreactivity (PSR sort gate): high polyreactivity

## QVQLVESGGGLVQAGGSLRLSCAASGSIFKLNAMGWYRQAPGKERELVAAISRGGRTYYADSVKGRFTISRDNAKNTVYLQMNSLKPEDTAVYYCAADASSQIWYYPRDDYWGQGTNVTVSS
  polyreactivity (PSR sort gate): low polyreactivity

## QVQHVESGGGLVQAGGSLRLSCAASGSIFWYYAKGWYRQAPGKERELVATITSGGSTSYADSVKGRFTISRDNAKNPVYLQMNSLKPEDTAVYYCAAARLFTTYDWGQGTQVTVSS
  polyreactivity (PSR sort gate): low polyreactivity

## QVQLVESGGGLVQAGGSLRLSCAASGSTFFTNAMGWYRPAPGKERELVAAITINDGSTFYADSVKGRFTISRDNAKNSDYLQMNSLKPEDTAVYYCNTDGVDLYDYWGQGTQVTVSS
  polyreactivity (PSR sort gate): low polyreactivity

## QVQLVESGGGLVQAGGSLRLSCAASGGTFRVYVMGWYRQAPGKERELVADISRGGGSTYYADSVKGRFTISRDNAKNTVYLQMNSLKPEDTAVYYCAARVCRYPWRASEYDYWGQGTQVTVSS
  polyreactivity (PSR sort gate): high polyreactivity

## QVQLEESGAGLVQAGGSLRLSCAASGSIFVRNAMAWYRHAPGKERELVAVITRSAGRTYYADSVKGRFTISRDNAKNTVYLQMNSLKPEDTAVYYCAASPSTPNKYGSWGQGTQVTVSS
  polyreactivity (PSR sort gate): high polyreactivity
